Among the data in publication PMC7798916 (National Science Review, 2020) are EC50 and Kd values, retold here.

Common to all, as to conditions: both partners purified
The target in assay [1] is T1, SARS-CoV-2 RBD (recombinant receptor binding domain of the S glycoprotein) (SARS-CoV-2, UniProt P0DTC2). Nature of the assay: ELISA.
For assay [2], the target named is T1, SARS-CoV-2 RBD (recombinant receptor …). Nature of the assay: cell-based immunofluorescent blocking assay.
The target is the same in assay [3]. Nature of the assay: BLI.

B1: HB27 (humanized monoclonal antibody, IgG) (antibody, V domains shown)
VH: VKLVESGGGLVKPGGSLRLSCAASGFTFTNYGMSWVRQAPGKRLEWVAEISSGGSYTYYPDTVTGRFTISRDNAKNTLYLQMNSLRAEDTAVYYCARFRYGGGGTVDYWGQGTLVTVSS
VL: IVLTQSPTLSLSPGERATLSCRASESVDNYGISFMNWFQQKPGQAPRLLIYAASNQGSGIPSRFSGSGSGTDFSLTISSLEPEDFAVYFCQQSKEVPRIFGQGTKVEIL
notes: also called HB27 IgG; source: CHO cell line
Take B1: the EC50 was 500 pM in assay [1] and 5000 to 50000 pM in assay [2]. Also, the Kd in assay [3] came out at 70 pM.

B2: HB27 Fab fragment (Fab, V domains shown)
VH: B1 VH
VL: B1 VL
Take B2: in assay [3], the Kd was 270 pM.
